Measured values: publication PMC8298602, “14-3-3-protein regulates Nedd4-2 by modulating interactions between HECT and WW domains” (Communications Biology, 2021)

T1: 14-3-3η (Homo sapiens, UniProt Q04917)
T1 sequence (Q04917 1-246): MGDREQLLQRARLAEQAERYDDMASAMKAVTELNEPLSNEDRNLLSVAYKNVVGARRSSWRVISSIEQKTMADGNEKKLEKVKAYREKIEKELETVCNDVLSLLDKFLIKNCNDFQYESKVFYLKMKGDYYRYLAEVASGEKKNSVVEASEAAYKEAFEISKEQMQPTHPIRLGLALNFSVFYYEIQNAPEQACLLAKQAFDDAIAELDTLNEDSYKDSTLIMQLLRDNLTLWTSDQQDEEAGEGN


Tests used:
[1] = system: all human 14-3-3 protein isoforms; experiment: native TBE-PAGE isoform binding specificity; conditions: 12% TBE-PAGE, 128 pmol 14-3-3 and 64 pmol pNedd4-2^335–455
Method: In addition, we prepared pNedd4-2^335–455 to characterize 14-3-3 isoform binding specificity.
Supplementary Fig. S2. Characterization of the interaction between Nedd4-2 and 14-3-3 in solution. a Continuous sedimentation coefficient distributions (c(s)) of 10 μM pNedd4- […]
mixed at 1:2 (cyan) and 1:1 (green) molar ratios. The protein concentrations were 10 μM for 14335-455 335-455-3-3ε and 5 μM or 10 μM for pNedd4335-455 -2 . b Isoform binding specificity of pNedd4-2 .
Phosphorylated pNedd4-2 , 14-3-3 proteins and their complexes were separated by 12% TBE-PAGE to study the interaction of pNedd4-2335-455 with all seven human 14-3-3 isoforms (β, γ, ε, δ, ε, σ, and τ). The amounts of protein loaded on the native gel were 128 pmol of 14335-455 -3-3 and […]
(1 picture or pasted object on this page, not shown here)

[2] = SV-AUC continuous sedimentation coefficient distributions c(s); assay type: physicochemical
Method: (§1) Sedimentation velocity (SV) experiments were performed using a ProteomLab^TM XL-I, Beckman Coulter analytical ultracentrifuge. The samples were dialyzed against a buffer containing 20 mM Tris-HCl (pH 7.5), 150 mM NaCl, and 1 mM TCEP before analysis. The samples with the longer construct of Nedd4-2^186–975 were dialyzed against a buffer containing 50 mM Tris-HCl (pH 8.0), 500 mM NaCl, 1 mM TCEP and 0.01% (v/v) Tergitol NP-40 (Sigma). […] The buffer density, viscosity, and partial specific volume of all proteins were estimated using the program […]. All sedimentation profiles were collected with absorbance optics at 280 nm. The sedimentation coefficients c(s) distributions were calculated from raw data using the SEDFIT software package. The calculated distributions were integrated to establish the weight-average sedimentation coefficients corrected to 20 °C and the density of water, sw(20,w). The sw values were plotted as a function of Nedd4-2^355–455 or 14-3-3η concentration to construct sw isotherms. The resulting isotherms were fitted with a A + B ⇌ AB model, as implemented in the SEDPHAT software package with previously known sw values of each component. The parameters were verified, and the loading concentrations were corrected using global Lamm-equation modeling, also implemented in the SEDPHAT software[66]

[3] = SEC-SAXS structural parameters; assay type: physicochemical; conditions: for Rg (Guinier approximation): 20 mM Tris-HCl pH 7.5, 150 mM NaCl, 1 mM TCEP, 3% glycerol
Method: SAXS data were collected on the European Molecular Biology Laboratory (EMBL) P12 beamline, at the storage ring PETRA III (Deutsches Elektronen Synchrotron (DESY), Hamburg, Germany). The SEC-SAXS measurements were conducted in a buffer containing 20 mM Tris-HCl (pH 7.5), 150 mM NaCl, 1 mM TCEP, 3% (w/v) glycerol using Superdex 200 Increase 5/150 GL column (GE Healthcare) at the flow rate 0.5 ml.min^−1 at 293.15 K.
The loading concentrations of the samples were 2.2 mg.ml^−1 for Nedd4-2^186–975, 2 mg.ml^−1 for 14-3-3η and 8.9 mg.ml^−1 for the Nedd4-2^186–975:14-3-3η complex (1:2 molar stoichiometry). The injection volume of the samples was 52 μl. Elution profiles with the corresponding frames were processed using ATSAS 3.0.2 software CHROMIXS[71]. ATSAS software PRIMUS and GNOM were used to determine the excluded volume of the hydrated particle (Vp), the radius of gyration (Rg) and maximum particle dimension (Dmax)[72],[73]. The molecular mass (MW) was determined using a methods described by Rambo et al.[74]. Scattering profiles, P(r) functions, normalized Kratky plots and Guinier approximations were visualized using GraphPad Prism version 8.0.1 for Windows (GraphPad Software, La Jolla California USA, www.graphpad.com). The program DAMMIF was used to calculate the ab inicio molecular envelopes. For the complex, 10 surfaces were generated in slow mode and averaged using DAMAVER[76]. The averaged surfaces were used as the final filtered model of the complex, which was superimposed to the structural model using the SUPCOMB program (EMBL, Hamburg, Germany)[77].

[4] = target: T1, 14-3-3η; experiment: SV-AUC (sedimentation velocity analytical ultracentrifugation), sw isotherm binding analysis; conditions: 300 nM pNedd4-2^186–975 with 0.06−6 μM 14-3-3η, A + B ⇌ AB (Langmuir) model, one pNedd4-2 per 14-3-3η dimer, 50 mM Tris-HCl pH 8.0, 500 mM NaCl, 1 mM TCEP, 0.01% Tergitol NP-40, 20 °C, read-out: apparent KD
Method: Solution properties of Nedd4-2^186–975 and its interactions with 14-3-3 were characterized by sedimentation velocity analytical ultracentrifugation (SV AUC).
as §1, with “The sw values were plotted as a function of Nedd4-2^355–455 or 14-3-3η concentration to construct sw isotherms.” left out

[5] = target: T1, 14-3-3η; experiment: native TBE-PAGE complex formation with 14-3-3η; assay type: binding; conditions: 12% native TBE-PAGE, 240 pmol 14-3-3η and 120 pmol Nedd4-2 variant
Method: Based on our estimates, the KD value was lower than 50 nM, as further confirmed by global modeling. TEXT PRINTED IN THE PICTURE: (d) no label printed: KD < 50 nM
Fig. 3 Simultaneous phosphorylation of two 14-3-3 binding motifs pSer342 and pSer448 is required for tight complex formation between pNedd4-2^335–455 and 14-3-3η. a 12% Native TBE-PAGE showing the interaction between 14-3-3η (240 pmol) and Nedd^335–455 variants without (no pS) or with one, two or three phosphorylation sites (120 pmol); 14-3-3η protein alone was loaded on the penultimate lane. b–i Sedimentation velocity analytical ultracentrifugation analysis of the complexes between 14-3-3η and pNedd4-2^335–455 variants showing the sw isotherms of 14-3-3η and Nedd4-2 with all three phosphorylation sites pSer^342 + pThr^367 + pSer^448 (b), with no phosphorylation sites (c), with one phosphorylation site (pSer^342 (d), pThr^367 (e) and pSer^448 (f)), or with two phosphorylation sites (pSer^342 + pThr^367 (g), pSer^342 + pSer^448 (h) and pThr^367 + pSer^448 (i)). […] The c(s) distributions underlying the sw data points are shown in Supplementary Fig. S3.

[6] = frames from the right side of the elution peak
[7] = frames from the top of the elution peak

Molecule	complex formation on native TBE-PAGE, all isoforms [1]	f/f0 ([2]; SV-AUC c(s) analysis)	weight-averaged sedimentation coefficient sw(20,w), unit not given ([2]; corrected to 20.0 °C and density of water) [S]	Dmax [3, 6] [nm]	Rg (GNOM) [3, 6] [nm]	VP (Porod volume) [3, 6] [nm^3]	Rg (Guinier approximation) [3, 6] [nm]	Dmax [3, 7] [nm]	Rg (GNOM) [3, 7] [nm]	VP (Porod volume) [3, 7] [nm^3]	Rg (Guinier approximation) [3, 7] [nm]	maximum particle dimension Dmax ([3]; from P(r) functions) [Å]	Kd [4] [nM]	complex formation on native TBE-PAGE [5]
pNedd4-2^335–455: shorter Nedd4-2 variant missing both the C2 and the HECT domains, all three phosphorylation sites (protein, phosphoserine at 342, phosphothreonine at 367, phosphoserine at 448; left off: His6, N-terminal, cleaved | GB1 domain of protein G, N-terminal, cleaved, shorter Nedd4-2 variant missing both the C2 and the HECT domains, all three phosphorylation sites) SSRLRSCSVTDAVAEQGHLPPPSAPAGRARSSTVTGGEEPTPSVAYVHTTPGLPSGWEERKDAKGRTYYVNHNNRTTTWTRPIMQLAEDGASGSATNSNNHLIEPQIRRPRSLSSPTVTLS	forms stable complexes	1.5	1.4											
Nedd4-2^186–975: N-terminally truncated human Nedd4-2, missing the C2 domain (protein, phosphoserine at 342, phosphothreonine at 367, phosphoserine at 448 (PKA in vitro, confirmed by LC-MS); left off: His6, C-terminal, kept, N-terminally truncated human Nedd4-2, missing the C2 domain) HQEELPPPPLPPGWEEKVDNLGRTYYVNHNNRTTQWHRPSLMDVSSESDNNIRQINQEAAHRRFRSRRHISEDLEPEPSEGGDVPEPWETISEEVNIAGDSLGLALPPPPASPGSRTSPQELSEELSRRLQITPDSNGEQFSSLIQREPSSRLRSCSVTDAVAEQGHLPPPSAPAGRARSSTVTGGEEPTPSVAYVHTTPGLPSGWEERKDAKGRTYYVNHNNRTTTWTRPIMQLAEDGASGSATNSNNHLIEPQIRRPRSLSSPTVTLSAPLEGAKDSPVRRAVKDTLSNPQSPQPSPYNSPKPQHKVTQSFLPPGWEMRIAPNGRPFFIDHNTKTTTWEDPRLKFPVHMRSKTSLNPNDLGPLPPGWEERIHLDGRTFYIDHNSKITQWEDPRLQNPAITGPAVPYSREFKQKYDYFRKKLKKPADIPNRFEMKLHRNNIFEESYRRIMSVKRPDVLKARLWIEFESEKGLDYGGVAREWFFLLSKEMFNPYYGLFEYSATDNYTLQINPNSGLCNEDHLSYFTFIGRVAGLAVFHGKLLDGFFIRPFYKMMLGKQITLNDMESVDSEYYNSLKWILENDPTELDLMFCIDEENFGQTYQVDLKPNGSEIMVTNENKREYIDLVIQWRFVNRVQKQMNAFLEGFTELLPIDLIKIFDENELELLMCGLGDVDVNDWRQHSIYKNGYCPNHPVIQWFWKAVLLMDAEKRIRLLQFVTGTSRVPMNGFAELYGSNGPQLFTIEQWGSPEKLPRAHTCFNRLDLPPYETFEDLREKLLMAVENAQGFEGVD				16.9	4.54 ± 0.02	192	4.39 ± 0.02	18.3	4.92 ± 0.01	218	4.67 ± 0.01	169	~50	phosphorylation-dependent interaction
